Starred links: 1 amine or outer side, 2 acyl side, 3 side chain; linkers in the order of their positions; H or OH if unused. Non-standard residues stand in square brackets, D forms with d. Groups on a side chain read outwards from the residue. No end group written: not given here. *: point of attachment. C18 diacid = O=C(O)CCCCCCCCCCCCCCCCC(=O)*; γGlu = O=C(O)[C@H](CCC(=O)[*:2])N[*:1]; αMeF = C[C@](N)(Cc1ccccc1)C(=O)O; 4Pal = N[C@@H](Cc1ccncc1)C(=O)O; AEEA = NCCOCCOCC(=O)O; Aib = CC(C)(N)C(=O)O
Assays:
Experiment in all cases: cell-based or functional assay
human glucagon receptor = human glucagon receptor (human, UniProt P47871 26-477)
[1] = biological target: T1, human glucose-dependent insulinotropic peptide receptor (human, UniProt P48546 22-466)
T1 sequence (looked up): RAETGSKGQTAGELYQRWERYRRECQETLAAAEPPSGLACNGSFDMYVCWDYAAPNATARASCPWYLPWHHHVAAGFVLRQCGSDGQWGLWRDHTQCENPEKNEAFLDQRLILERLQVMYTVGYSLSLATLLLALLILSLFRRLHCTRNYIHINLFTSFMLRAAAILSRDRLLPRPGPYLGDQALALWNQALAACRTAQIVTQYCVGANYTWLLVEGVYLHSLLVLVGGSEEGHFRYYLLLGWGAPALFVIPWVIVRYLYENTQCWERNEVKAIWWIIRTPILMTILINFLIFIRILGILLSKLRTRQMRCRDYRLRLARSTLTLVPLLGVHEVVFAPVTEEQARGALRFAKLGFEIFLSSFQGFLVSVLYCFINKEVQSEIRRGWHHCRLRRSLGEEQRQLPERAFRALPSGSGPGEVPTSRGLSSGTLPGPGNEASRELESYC

human GLP-1 receptor = human GLP-1 receptor (human, UniProt P43220 24-463)

Chain of human glucagon receptor (P47871 26-477): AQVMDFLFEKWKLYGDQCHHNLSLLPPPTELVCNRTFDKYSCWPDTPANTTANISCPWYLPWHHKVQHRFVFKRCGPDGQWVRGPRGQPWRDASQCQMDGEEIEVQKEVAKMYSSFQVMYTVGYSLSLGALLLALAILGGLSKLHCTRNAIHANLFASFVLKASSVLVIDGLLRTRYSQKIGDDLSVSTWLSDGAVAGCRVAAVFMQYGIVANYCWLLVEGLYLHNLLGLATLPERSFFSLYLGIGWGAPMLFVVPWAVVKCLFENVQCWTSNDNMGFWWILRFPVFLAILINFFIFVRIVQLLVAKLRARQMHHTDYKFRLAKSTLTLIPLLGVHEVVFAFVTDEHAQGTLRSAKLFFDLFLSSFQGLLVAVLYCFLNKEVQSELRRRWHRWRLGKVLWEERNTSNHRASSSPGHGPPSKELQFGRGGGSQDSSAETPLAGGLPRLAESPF

B1: Example 24 (peptide)
peptide: Y[Aib]EGTFISDYSI[Aib]LDKK([AEEA-AEEA-γGlu-C18 diacid])HQ[Aib]DFVE[4Pal]LLAGGPSSGAPPPS-NH2
modifications: N-terminus assumed
SMILES: CC[C@H](C)[C@H](NC(=O)[C@H](Cc1ccccc1)NC(=O)[C@@H](NC(=O)CNC(=O)[C@H](CCC(=O)O)NC(=O)C(C)(C)NC(=O)[C@@H](N)Cc1ccc(O)cc1)[C@@H](C)O)C(=O)N[C@@H](CO)C(=O)N[C@@H](CC(=O)O)C(=O)N[C@@H](Cc1ccc(O)cc1)C(=O)N[C@@H](CO)C(=O)N[C@H](C(=O)NC(C)(C)C(=O)N[C@@H](CC(C)C)C(=O)N[C@@H](CC(=O)O)C(=O)N[C@@H](CCCCN)C(=O)N[C@@H](CCCCNC(=O)COCCOCCNC(=O)COCCOCCNC(=O)CC[C@H](NC(=O)CCCCCCCCCCCCCCCCC(=O)O)C(=O)O)C(=O)N[C@@H](Cc1c[nH]cn1)C(=O)N[C@@H](CCC(N)=O)C(=O)NC(C)(C)C(=O)N[C@@H](CC(=O)O)C(=O)N[C@@H](Cc1ccccc1)C(=O)N[C@H](C(=O)N[C@@H](CCC(=O)O)C(=O)N[C@@H](Cc1ccncc1)C(=O)N[C@@H](CC(C)C)C(=O)N[C@@H](CC(C)C)C(=O)N[C@@H](C)C(=O)NCC(=O)NCC(=O)N1CCC[C@H]1C(=O)N[C@@H](CO)C(=O)N[C@@H](CO)C(=O)NCC(=O)N[C@@H](C)C(=O)N1CCC[C@H]1C(=O)N1CCC[C@H]1C(=O)N1CCC[C@H]1C(=O)N[C@@H](CO)C(N)=O)C(C)C)[C@@H](C)CC
With B1 the “hGcgR cAMP Rel EC50” value (human glucagon receptor) was > 5000 nM, the “hGIPR cAMP Rel EC50” value [1] was 0.0699 nM and the “hGLP1R cAMP Rel EC50” value (human GLP-1 receptor) was > 5000 nM.

B2: Example 23 (peptide)
peptide: Y[Aib]EGT[αMeF]ISDYSIALDKK([AEEA-AEEA-γGlu-C18 diacid])HQ[Aib]DFVE[4Pal]LLAGGPSSGAPPPS-NH2
modifications: N-terminus assumed
SMILES: CC[C@H](C)[C@H](NC(=O)[C@H](CO)NC(=O)[C@H](Cc1ccc(O)cc1)NC(=O)[C@H](CC(=O)O)NC(=O)[C@H](CO)NC(=O)[C@@H](NC(=O)[C@](C)(Cc1ccccc1)NC(=O)[C@@H](NC(=O)CNC(=O)[C@H](CCC(=O)O)NC(=O)C(C)(C)NC(=O)[C@@H](N)Cc1ccc(O)cc1)[C@@H](C)O)[C@@H](C)CC)C(=O)N[C@@H](C)C(=O)N[C@@H](CC(C)C)C(=O)N[C@@H](CC(=O)O)C(=O)N[C@@H](CCCCN)C(=O)N[C@@H](CCCCNC(=O)COCCOCCNC(=O)COCCOCCNC(=O)CC[C@H](NC(=O)CCCCCCCCCCCCCCCCC(=O)O)C(=O)O)C(=O)N[C@@H](Cc1c[nH]cn1)C(=O)N[C@@H](CCC(N)=O)C(=O)NC(C)(C)C(=O)N[C@@H](CC(=O)O)C(=O)N[C@@H](Cc1ccccc1)C(=O)N[C@H](C(=O)N[C@@H](CCC(=O)O)C(=O)N[C@@H](Cc1ccncc1)C(=O)N[C@@H](CC(C)C)C(=O)N[C@@H](CC(C)C)C(=O)N[C@@H](C)C(=O)NCC(=O)NCC(=O)N1CCC[C@H]1C(=O)N[C@@H](CO)C(=O)N[C@@H](CO)C(=O)NCC(=O)N[C@@H](C)C(=O)N1CCC[C@H]1C(=O)N1CCC[C@H]1C(=O)N1CCC[C@H]1C(=O)N[C@@H](CO)C(N)=O)C(C)C
For B2, the “hGcgR cAMP Rel EC50” value (human glucagon receptor) was > 5000 nM, the “hGIPR cAMP Rel EC50” value [1] was 0.0192 nM and the “hGLP1R cAMP Rel EC50” value (human GLP-1 receptor) was 206 nM.
